From patent US11994512B2, “Single-cell genomic methods to generate ex vivo cell systems that recapitulate in vivo biology with improved fidelity” (Massachusetts Institute of Technology, priority 2018, dated 2024)

B1: O35594 (protein, UniProt O35594 1-676, looked up)
chain: MSDQIKFIVDSLNKEPFKKNYNLITFDSLGPMQLLQVLNDVLAEIDPKQDVDIREEMPEQTAKRMLNLLGILKYKPPGNATDMSTFRQGLVIGSKPVIYPVLHWLLQRSNELKKRAYLARFLIKLEVPSEFLQDETVADTNKQYEELMEAFKTLHKECEQLKTSGFSTAEIRRDISAMEEEKDQLMKRVERLKKRVETVQNHQRMLKIARQLRVEKEREEFLAQQKQEQKNQLFHAVQRLQRVQNQLKSMRHAAADAKPESLMKRLEEEIKFNSYMVTEKFPKELESKKKELHFLQKVVSEPAMGHSDLLELETKVNEVNTEINQLIEKKMMRNEPIEGKLSLYRQQASIISRKKEAKAEELQETKEKLASLEREVLVKTNQTREFDGTEVLKGDEFKRYVSKLRSKSTVFKKKHQIIAEFKAEFGLLQRTEELLKQRQETIQHQLRTIEEKKGISGYSYTQEELERVSALKSEVDEMKGRTLDDMSEMVKKLNSLVSEKKSALAPVIKELRQLRQKCQELTQECDEKKAQYDSCAAGLESNRSKLEQEVRGLREECLQEESKYHYTNCMIKNLEVELRRATDEMKAYVSSDQQEKRKAIREQYTKNITEQENLGKKLREKQKAVRESHGPNMKQAKMWRDLEQLMECKKQCFLKQQSPASIGQVIQEGGEDRLVL
modifications: full-length
B2: O35945 (protein, UniProt O35945 1-501, looked up)
chain: MSSPAQPAVPAPLANLKIQHTKIFINNEWHDSVSSKKFPVLNPATEEVICHVEEGDKADVDKAVKAARQAFQIGSPWRTMDASERGRLLNKLADLMERDRLLLATMESMNAGKVFAHAYLLDVEISIKALQYFAGWADKIHGQTIPSDGNIFTYTRREPIGVCGQIIPWNGPLIIFTWKLGPALSCGNTVVVKPAEQTPLTALHMASLIKEAGFPPGVVNIVPGYGPTAGGAISSHMDIDKVSFTGSTEVGKLIKEAAGKSNLKRVTLELGGKSPCIVFADADLDSAVEFAHQGVFFHQGQICVAASRLFVEESIYDEFVRRSVERAKKYILGNPLNSGINQGPQIDKEQHNKILGLIESGKKEGAKLECGGGRWGNKGFFVQPTVFSNVTDEMRIAKEEIFGPVQQIMKFKSMDDVIKRANNTTYGLAAGVFTKDLDKAITVSSALQAGMVWVNCYLAVPVQCPFGGFKMSGNGRELGEHGLYEYTELKTVAMQISQKNS
modifications: full-length
B3: O70126 (protein, UniProt O70126 1-345, looked up)
chain: MAQKENAYPWPYGSKTSQSGLNTLSQRVLRKEPATTSALALVNRFNSQSTAAPGQKLAENKSQGSTASQGSQNKQPFTIDNFEIGRPLGKGKFGNVYLAREKKSRFIVALKILFKSQIEKEGVEHQLRREIEIQAHLKHPNILQLYNYFYDQQRIYLILEYAPRGELYKELQKSRTFDEQRTATIMEELSDALTYCHKKKVIHRDIKPENLLLGLQGELKIADFGWSVHAPSLRRKTMCGTLDYLPPEMIEGRMHNEMVDLWCIGVLCYELMVGNPPFESPSHSETYRRIVKVDLKFPSSVPSGAQDLISKLLKHNPWQRLPLAEVAAHPWVRANSRRVLPPSAL
modifications: full-length
B4: O35943 (protein, UniProt O35943 1-207, looked up)
chain: MWAFGGRAAVGLLPRTASRASAWVGNPRWREPIVTCGRRGLHVTVNAGATRHAHLNLHYLQILNIKKQSVCVVHLRNLGTLDNPSSLDETAYERLAEETLDSLAEFFEDLADKPYTLEDYDVSFGDGVLTIKLGGDLGTYVINKQTPNKQIWLSSPSSGPKRYDWTGKNWVYSHDGVSLHELLARELTKALNTKLDLSSLAYSGKGT
modifications: full-length

test system: intracellular proteome of ENR+CD and ENR organoids; test: LC-MS/MS TMT proteomics of ENR+CD versus ENR organoids; type: cell-based, C57BL/6 mice; conditions: protein abundance, ENR+CD versus ENR organoids; aggregate of the four sample pairs
Source text: Because PCs are highly secretory, protein-rich cells, Applicants sought to assess the total intracellular proteome between conditions through liquid chromatography mass spectrometry (LC-MS/MS)-based proteomics. Applicants quantified relative protein abundance across eight samples using isobaric mass tag labeling from four ENR and four ENR+CD samples (M1-1 through M2-2, first digit denotes biological donor, second digit denotes technical replicate) (FIG. 3A). Samples were processed and analyzed in a single 10-plex by LC-MS/MS (FIG. 9A).
To affirm the reproducibility of the associated proteins in the ENR+CD-enriched proteome, Applicants performed relative quantification within differentiation sets.
Mass spectrometry proteomics sample preparation, sequencing, and quantification. Organoid cell pellets were isolated from Matrigel with mechanical dissociation and washed (cold PBS 5X) to remove residual extracellular protein. Proteins were extracted from cell pellets with 8 M urea (Sigma), reduced with 5 mM DTT (Thermo Fisher Pierce) for 45 minutes, alkylated with 10 mM IAA (Sigma) for 45 minutes in the dark, and double digested with both Lysyl Endopeptidase “LysC” (Wako) and trypsin (Promega) overnight at RT. A small aliquot of cellular lysate was removed from each sample for protein quantification via the Pierce™ BCA Protein Assay Kit (Pierce). After proteolytic digestion, the samples were quenched using formic acid to a final concentration of 1.0% and subsequently desalted on 10 mg OASIS HLB solid phase columns (Waters).
The peptides were labeled with TMT-10 isobaric mass tag reagent according to manufacturer's instructions (ThermoFisher Scientific). The peptides were labeled at a 1:8 ratio of peptide to TMT reagent, followed by 1-hour incubation at RT with bench top shaking at 850 rpm. After incubation, a […] of labeled tryptic peptide was removed from each labeled condition, desalted with C18 stage tips, and analyzed via LC-MS/MS using a Thermo Fisher Q Exactive Plus Hybrid Mass Spectrometer (QE-Plus) coupled to a Thermo Fisher EASY-nLC 1000 liquid chromatograph to ensure isobaric label incorporation >95%. An additional 1.0 μg of labeled tryptic peptide was removed from each channel, mixed together, desalted on a C18 stage tip, and analyzed via LC-MS to ensure equal relative protein loads. During these quality control steps, the labeled peptides were stored, unquenched at −80° C.

| Molecule | Average logFC |
| --- | --- |
| B1 | 1.151 |
| B2 | −1.329 |
| B3 | −1.165 |
| B4 | −1.193 |

same assay, conditions: protein abundance, ENR+CD versus ENR organoids; replicate M1-1; log2 ratio

| Molecule | M1-1 Log2 Median Normalized |
| --- | --- |
| B1 | 0.817 |
| B2 | −1.241 |
| B3 | −1.572 |
| B4 | −0.813 |

same assay, conditions: protein abundance, ENR+CD versus ENR organoids; replicate M1-2; log2 ratio

| Molecule | M1-2 Log2 Median Normalized |
| --- | --- |
| B1 | 1.152 |
| B2 | −1.721 |
| B3 | −0.967 |
| B4 | −0.849 |

same assay, conditions: protein abundance, ENR+CD versus ENR organoids; replicate M2-1; log2 ratio

| Molecule | M2-1 Log2 Median Normalized |
| --- | --- |
| B1 | 1.1275 |
| B2 | −1.8345 |
| B3 | −0.8395 |
| B4 | −1.3945 |

same assay, conditions: protein abundance, ENR+CD versus ENR organoids; replicate M2-2; log2 ratio

| Molecule | M2-2 Log2 Median Normalized |
| --- | --- |
| B1 | 1.543 |
| B2 | −0.518 |
| B3 | −1.281 |
| B4 | −1.715 |

same assay, conditions: up = enriched in ENR+CD, down = enriched in ENR; FDR<0.05 and log fold change cut-off

| Molecule | change |
| --- | --- |
| B1 | up |
| B2 | down |
| B3 | down |
| B4 | down |
